# Measured values: PMC6376876
# System: CC(=O)Oc1ccc([N+](=O)[O-])cc1
# Experiment: purified protein
substance,measurement,value
LsALDH16 (Loktanella sp. 3ANDIMAR09),Km,1740 µM
same,Vmax,7.9 µmol/min/mg
same,kcat,10.6 ± 1.6 s⁻¹
same,kcat/Km,6000 ± 2000 M⁻¹ s⁻¹
